Test results: the nanobody polyreactivity screen of Harvey et al. (2022)

Test: yeast display, Sf9 membrane polyspecificity reagent, FACS + sequencing; frameworks hold sequencing errors
Outline: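 Nanobodies from a synthetic yeast display library (Saccharomyces cerevisiae BJ5465), induced 36–48 hours with galactose, were stained 1 hour at 4 °C with 10% biotinylated, detergent-solubilized Sf9 membrane reagent, enriched on streptavidin microbeads, then FACS-sorted. Anti-HA (expression) and streptavidin (reagent binding) fluorescence set low and high (top ~1%) gates. Polyreactivity labels come from the gate of origin. Genes were colony-PCR amplified, MiSeq 2 × 250 sequenced and filtered by CDR length.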

Row | Sequence | polyreactivity (PSR sort gate)
1 | QVQLVESGGGLVQAGGSLRLSCAASGRTSNIYAMGWYRQAPGKERELVAAIRTGGSTNYADSVKGRFTISRDNAKNSVYLQMNSLKPEDTAVYYCAATSRRSRPAEEYWGQGTQVTVSS | high polyreactivity
2 | QVQLVESGGGLVQAGGSLRLSCAASGRTSRNNVMGWYRQAPGKERELVAAITKRTDRTYYADSVKGRFTISRDNAKNTVYLQMNSLKPEDTAVYYCAADLSLSTGGRAFPTYGYWGQGTQVTVSS | high polyreactivity
3 | QVQLVESGGGLVQAGGSLRLSCAASGRTSRQYAMGWYRQAPGKEREFVAAITWSDSGTYYADSVKGRFTISRDNAKNTVYLQMNSLKPEDTAVYYCAAERYLSFDRYLYEYYYWGQGTQVTVSS | low polyreactivity
4 | QVQLVESGGGLVQAGGSLRLSCAASGRTSRVYAMGWYRQAPGTERELVAAITWRGGNTYYADSVKGRFTISRDHAKNTVYLQMNSMKPEDTAVYYCAADPWSYGSWHGDSWGQGTQVTVSS | high polyreactivity
5 | QVQLVESGGGLVQAGGSLRLSCAASGRTSRYAMGWYRQAPGKERELVAAISRNGGTTSYADSVKGRFTISRDNAKNTVYLQMNSLKPEDTAVYYCNAYSAFVPPTRGYYWGQGTQVTVSS | high polyreactivity
6 | QVQLVESGGGLVQAGGSLRLSCAASGRTSSIYTMGWYRQAPGKERELVAAINSGGRTYYADSVKGRFTISRDNAKNTVYLQMNSLKPEDTAVYYCAARRSTYYWGGVTYTYYWGQGTQVTVSS | high polyreactivity
7 | QVQLVESGGGLVQAGGSLRLSCAASGRTSSSYAMGWSRQAPGKERELVASITSSGRTYYADSVKGRFTISRDNAKNTVYLQMNSLKPEDTAVYYCAAPFYRVRGWYARTPYGYWGQGTQVTVSS | high polyreactivity
8 | QVQLVESGGGLVQAGGSLRLSCAASGRTSTRNAMGWYRQAPGKERELVAAITRSGGGTYYADSVKGRFTISRDNAKNTVYLQMNSLKPEDTAVYYCAADQRSPSDGYEYWGQGTQVTVSS | low polyreactivity
9 | QVQLVESGGGLVQAGGSLRLSCAASGRTSVINAMGWYRQAPGKERELVATISRGGSTNYADSVKGRFTISRDNAKNTVYLQMNSLIPDDTAVYYCNADEQNESFIWSFTIIYDYWGQGTQVTVSS | low polyreactivity
10 | QVQLVESGGGLVQAGGSLRLSCAASGRTSVIYAMGWYRKAPGKERELVASIRRGGSTSYADSVKGRFTISRDNAKNTVYLQMNSLKPEDTAVYYCAARKRSVYGTEYDYWGQGTQVTVSS | high polyreactivity
11 | QVQLVESGGGLVQAGGSLRLSCAASGRTSVIYAMGWYRQAPGKERELVASIRRGGSTSYADSVKGRFTISRDNAKNTVYLQMNSLKPEDTAVYYCAARKRSVYGTEYDYWGQGTQVTVSS | high polyreactivity
12 | QVQLVESGGGLVQAGGSLRLSCAASGRTSVWYTMGWYRQAPGKEREFVASITGSGTCYADSVKGRFTISRDNAKNTVYLQMNSLKPEDTAVYYCAAGGKYYTFGFRGGTYDYWGQGTQVTVSS | high polyreactivity
13 | QVQLVESGGGLVQAGGSLRLSCAASGRTSVYNAMGWYRPAPGKERELVAAIRGGGGNTYYADSVKGRFTISRDNAKNTVYLQMNSLKPADTAVYYCAKGSVVYLLRGVKGHSMDYWGQGTQVTVSS | low polyreactivity
14 | QVQLVESGGGLVQAGGSLRLSCAASGRTSVYNAMGWYRQAPGKERELVAAITYGGRTYYADSVKGRFTISRDNAKNTVYLQMNSLKPEDTAVYYCAAPFHPAYVGYDYWGQGTQVTVSS | low polyreactivity
15 | QVQLVESGGGLVQAGGSLRLSCAASGRTSYGYAIGWYRQAPGKERELVAAITYGGGSTYYADSVKGRFTISRDNEKNTVYLQMNSLKPEDTAVYYCAADRTGSTLYTIRYYYWGQGTQVTVSS | low polyreactivity
16 | QVQLVESGGGLVQAGGSLRLSCAASGRTSYSNAMGWYRQAPGKERELVAAISGSGVRTYYADSVKGRFTISRDNAKNTVYLQMNSLKPEDTAVYYCAAAGRYPALYGYWGQGTQVTVSS | high polyreactivity
17 | QVQLVESGGGLVQAGGSLRLSCAASGRTSYTNAMGWYRQAPGKERELVAAINYSGGSTYYADSVKGRFTISRDNAKNTVYLQMNSLKPEDTAVSYCAAERYYWYTEMGYWGQGTQVTVSS | high polyreactivity
18 | QVQLVESGGGLVQAGGSLRLSCAASGRTSYTNAMGWYRQAPGKERELVAAINYSGGSTYYADSVKGRFTISRDNAKNTVYLQMNSLKPEDTAVYYCAADWDWWYQEFDYWGQGTQVTVSS | high polyreactivity
19 | QVQLVESGGGLVQAGGSLRLSCAASGRTYGFNVMGWYRQAPGKERELVAAISWSGGSTYYADSVKGRFTISRDNEKNTVYLQMNSLKPEDTAVYYCNKRYVHRYGYWGQGTQVTVSS | low polyreactivity
20 | QVQLVESGGGLVQAGGSLRLSCAASGRTYGHDTMGWYRQAPGKERELVARISRTGSTKYADSVKGRFTISRDNAKNTVYLQMNCLTPEDTAVYYCARVQAGGYGERVYAYHFDYWGQGTQVTVSS | high polyreactivity
21 | QVQLVESGGGLVQAGGSLRLSCAASGRTYGYAMGWYRQAPGKERELVARITWRGGSTSYADSVKGRFTISRDNAKNTVYLQMNSLKPEDTAVYYCAAGFYFPVYTYVRKRYYYWGQGTQVTVSS | high polyreactivity
22 | QVQLVESGGGLVQAGGSLRLSCAASGRTYGYAMGWYRQAPGKERELVARITWRGGSTSYADSVKGRFTISRENAKNTVYLQMNSLKPEDTAVYYCAAGFNSSDWHYYYRGQGTQVTVSS | high polyreactivity

Row | Sequence | polyreactivity (PSR sort gate)
23 | QVQLVESGGGLVQAGGSLRLSCAASGRTYIYNAMGWYRQAPGKERELVAAISFRGGSTYYADSVKGRFTISRDNAKNTVYLQMNSLKPEDTAVYYCNAVRFYRYGWGQGTQVTVSS | high polyreactivity
24 | QVQLVESGGGLVQAGGSLRLSCAASGRTYLYYVMGWYIQAPGKEREVVAAISYSGGSTYYADSVKGRFTISRDNAKNTVYLQMNSLKPEDTAVYYCTAVPVVRAGHGYDSWGQGTQVTVSS | high polyreactivity
25 | QVQLVESGGGLVQAGGSLRLSCAASGRTYNTNAMGWYRQAPGKERELVAAISGGGSTYADSVKGRFTISRDNAKNTVYLQMNSLKPEDTAVYYCAAQNVWFYGFWRDYWGQGTQVTVSS | low polyreactivity
26 | QVQLVESGGGLVQAGGSLRLSCAASGRTYPAYAMGWYRQAPGKERELVAAITYDGGTTYYADSVKVRFTISRDNAKNTVYLQMNSLKPEDTAVYYSAAVYDEDQYDYWGQGTQVTVSS | low polyreactivity
27 | QVQLVESGGGLVQAGGSLRLSCAASGRTYPGNAMGWYRPAPGKERELVAAISWSGTRTYYADSVKGRFTISRDNAKNTVYLQMNSLKPEDTAVHFCNVVVKGAWDYYPYDYWGQGTQVTVSS | high polyreactivity
28 | QVQLVESGGGLVQAGGSLRLSCAASGRTYRRNAMGWYRQAPGKERELVAAIRSDGSTYYADSVKGRFTISRDNAKNTVYLQMNRLKPEDTAVYYCNAVYVSSFTCHDYWGQGTQVTVSS | low polyreactivity
29 | QVQLVESGGGLVQAGGSLRLSCAASGRTYRRYAMGWYRQAPGKERELVASISRTGGSTYYADAVKRRYTISRDNAKNTVYLQMNSLKPVDTAVYYCNAGPSVGWYNYWGQGTQVSVSS | high polyreactivity
30 | QVQLVESGGGLVQAGGSLRLSCAASGRTYSYYAMGWYRQAPGKERQLVAAITTRTGSTYYADSVKGRFTISRDNAKNTVYLQMNSLKPEDTAVYYCAAEPRYLRSGKGFDYWGQGTQVTVSS | high polyreactivity
31 | QVQLVESGGGLVQAGGSLRLSCAASGRTYTGYGMGWSRQAPGKERELVAAITWRGDRTYYADSVKGRFTISRDNAKNTVYLQMNSLKPEDTAVYYCNKLGRIQYDYWGQGTQVTVSS | high polyreactivity
32 | QVQLVESGGGLVQAGGSLRLSCAASGRTYTYAMGWYRQAPGKERELVAGISRRGGNTYYADSVKGRFTISRDNAKNTVYLQMNSLKPEDTAVYYCAAVSFSASSYTYEYWGQGTQVTVSS | high polyreactivity
33 | QVQLVESGGGLVQAGGSLRLSCAASGRTYVFYVMGWYRQAPGKERELVASISRSGGSTYYADSVKGRFTISRDNAKNTVYLQMNSLKPEDTAVYYCAADQLYYGERDYIWGYYYWGQGTQVTVSS | low polyreactivity
34 | QVQLVESGGGLVQAGGSLRLSCAASGRTYVPNAMGWYRQAPGKEREFVAAITSRGGRTFYADSVKGRFTISRDNAKNTVYLQMNSLKPDDTAVYYCAAYRPGFVYGRLDYWGQGTQVTVSS | high polyreactivity
35 | QVQLVESGGGLVQAGGSLRLSCAASGRTYVRDTMGWYRQAPGQERQLVAAITWSGGSTYYADSVKGRFTISRDNAKNTVYLQMNSLKPEDTAVYYCARRYSPHTSVSYYSWGQGNQVTVSS | high polyreactivity
36 | QVQLVESGGGLVQAGGSLRLSCAASGRTYYWNAMGWYRQAPGKEREFVAAITNTAGSTYYADSVKGRFTISRDNAKNTVYLQMNSLKPEDTAVYYCAKSGNAGYRTYLRDYWGQGTQVTVSS | low polyreactivity
37 | QVQLVESGGGLVQAGGSLRLSCAASGRTYYWYAMGWYRQAPGKERELVAAISSGGSTYYADSVKGRFTISRDNAKNTVSLQMISLKPEDTAVYYCAAYPQAYIADYDYWGQGTQVTVSS | low polyreactivity
38 | QVQLVESGGGLVQAGGSLRLSCAASGRYAMGWYRQAPGKVRELVAAISDSDGSTYYADSVKGRFTISRDNAKTNVYLQMNSLKPEDTAVNYCDARSIVRFDSWGQGTQVTVSS | low polyreactivity
39 | QVQLVESGGGLVQAGGSLRLSCAASGSIAGNAMGWYRQARGKEREMVAAITFRGSGTYYADSVKGRFTISRDNAKKTVYLQMNSLKPEDTAVYYCNAYRRGLSGYGYWGQGTQVTVSS | high polyreactivity
40 | QVQLVESGGGLVQAGGSLRLSCAASGSICDVNAMGWYRQAPGKEREMVAAISDSGGSTYYADSVKGRFTISRDTAKNTVYLQMNSLNPEDTSVYYCNADWSWYNYYDFDYWGQGTQVTVSS | low polyreactivity
41 | QVQLVESGGGLVQAGGSLRLSCAASGSICGGYAMGWYRQAPGKERELVAGITRSGGSTYYADSVKGRFTISRDNAKNTVYLQMNSLKPEDTAVYYCAVEIQFYRSPRKVRSYDYWGQGTQVTVSS | low polyreactivity
42 | QVQLVESGGGLVQAGGSLRLSCAASGSICGLYDMRWYRQAPGKERELVASITGGGSTYADSVKGRFTISRDNAKNTVYLQMNSLKPEDTAVYSFAAKPYSFYGYKYDYWGQGTQVTVSS | low polyreactivity
43 | QVQLVESGGGLVQAGGSLRLSCAASGSIFAANAMGWYRQAPGKERELVAAISRSGNTYYADSVKGRFTISRDNAKNTVYLQMNSLKPEDTAVYYCAARRDAYGRTYGYWGQGTQVTVSS | high polyreactivity
